These results are taken from US7125658B2, “Small protein that interacts with a ribonucleotide reductase subunit and uses thereof” (The Trustees of Columbia University in the City of New York, priority 1998, dated 2006).

Test [1] addresses GAD-Sml1 two-hybrid fusion (plasmid pWJ684, pACTII) (Saccharomyces cerevisiae (yeast)) (UniProt Q04964). Kind of test: cell-based or functional assay.
In test [2] the target is T1, GAD-SML1 (Saccharomyces cerevisiae, UniProt Q04964).
T1 construct: expressed in transfected cells; host or cells: S. cerevisiae two-hybrid strain PJ69-4A
T1 sequence (Q04964 1-104): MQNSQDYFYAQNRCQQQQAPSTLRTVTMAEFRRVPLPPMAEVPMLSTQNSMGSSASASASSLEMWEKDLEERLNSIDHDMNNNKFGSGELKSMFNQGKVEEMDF
The test is described as follows: yeast two-hybrid assay against GAD-SML1. In kind it is cell-based. The text has this:
(§1) The strains and plasmids for two-hybrid analysis were PJ69-4A, pGBD-C2, pGAD-C2 (James et al., 1996) and pACTII (CLONTECH® Inc.). The primer pair pB-SML1 5′ (SEQ ID NO: 11) and pGBD-SML1 3′ (SEQ ID NO: 13) (Table 4) was used to amplify the SML1 ORF. After digestion with BamHI and PstI, this PCR product was cloned into the BamHI-PstI sites of pGBD-C2 to construct plasmid pWJ728. Similarly, plasmid pWJ684 contains a BamHI fragment from the PCR product of the SML1 ORF generated using the primer pair pB-SML1 5′ and pB-SML1 3′ (SEQ ID NO: 12) (Table 4) and inserted at the BamHI site of pACTII. PCR fragments containing the RNR1 or the RNR2 ORF were generated by primer pairs RNR1-ORF 5′ (SEQ ID NO: 14) and RNR1 3′ (SEQ ID NO: 15) or RNR2-ORF 5′ (SEQ ID NO: 17) and RNR2 3′ (SEQ ID NO: 16) (Table 4). These fragments were cloned into the BamHI-PstI site of pGBD-C2 and pGAD-C2 to construct pWJ731 and pWJ745 or pWJ729 and pWJ746 respectively.
(§2) The GAL1-HIS3 reporter was assayed on SC-HIS-LEU-TRP medium plus 1-2 mM 3-aminotriazole. The GAL2-ADE2 reporter was assayed on SC-ADE-LEU-TRP medium.

Test [3] addresses T2, GAD-RNR2 (Saccharomyces cerevisiae, UniProt P09938).
T2 construct: expressed in transfected cells; host or cells: S. cerevisiae two-hybrid strain PJ69-4A
T2 sequence (P09938 1-399): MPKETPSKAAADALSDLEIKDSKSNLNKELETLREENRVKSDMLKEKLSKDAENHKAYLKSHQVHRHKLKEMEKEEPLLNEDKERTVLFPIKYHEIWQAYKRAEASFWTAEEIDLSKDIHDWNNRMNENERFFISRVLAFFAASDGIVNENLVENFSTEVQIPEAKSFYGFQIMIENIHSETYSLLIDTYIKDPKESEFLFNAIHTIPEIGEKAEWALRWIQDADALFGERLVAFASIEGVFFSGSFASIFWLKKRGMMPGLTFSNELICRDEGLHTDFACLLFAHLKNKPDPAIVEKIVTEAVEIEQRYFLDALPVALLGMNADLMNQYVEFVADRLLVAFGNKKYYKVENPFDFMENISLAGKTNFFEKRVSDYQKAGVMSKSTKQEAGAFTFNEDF
Kind of test: yeast two-hybrid assay against GAD-RNR2. In kind it is cell-based. Also on record: key to HIS3 reporter / ADE2 reporter: + signifies growth on histidine-less and adenine-less media; +/− signifies constructs unable to grow on adenine-less medium but able to give rise to white colonies on YPD medium.
From the text: as §1, §2

Test [4] concerns the target T3, GAD (Saccharomyces cerevisiae, UniProt P04386).
T3 construct: expressed in transfected cells; host or cells: S. cerevisiae two-hybrid strain PJ69-4A
T3 sequence (P04386 768-881 limits assumed): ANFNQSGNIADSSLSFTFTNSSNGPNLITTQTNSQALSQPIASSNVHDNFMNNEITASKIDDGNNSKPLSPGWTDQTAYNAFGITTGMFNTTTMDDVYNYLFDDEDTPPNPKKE
The test is described as follows: yeast two-hybrid assay against GAD alone. It is filed as cell-based.
From the text: as §1, §2

The target of test [5] is T4, Recombinant yeast Rnr1 protein (large subunit of ribonucleotide reductase) (yeast (Saccharomyces cerevisiae), UniProt P21524 1-888).
T4 sequence (looked up): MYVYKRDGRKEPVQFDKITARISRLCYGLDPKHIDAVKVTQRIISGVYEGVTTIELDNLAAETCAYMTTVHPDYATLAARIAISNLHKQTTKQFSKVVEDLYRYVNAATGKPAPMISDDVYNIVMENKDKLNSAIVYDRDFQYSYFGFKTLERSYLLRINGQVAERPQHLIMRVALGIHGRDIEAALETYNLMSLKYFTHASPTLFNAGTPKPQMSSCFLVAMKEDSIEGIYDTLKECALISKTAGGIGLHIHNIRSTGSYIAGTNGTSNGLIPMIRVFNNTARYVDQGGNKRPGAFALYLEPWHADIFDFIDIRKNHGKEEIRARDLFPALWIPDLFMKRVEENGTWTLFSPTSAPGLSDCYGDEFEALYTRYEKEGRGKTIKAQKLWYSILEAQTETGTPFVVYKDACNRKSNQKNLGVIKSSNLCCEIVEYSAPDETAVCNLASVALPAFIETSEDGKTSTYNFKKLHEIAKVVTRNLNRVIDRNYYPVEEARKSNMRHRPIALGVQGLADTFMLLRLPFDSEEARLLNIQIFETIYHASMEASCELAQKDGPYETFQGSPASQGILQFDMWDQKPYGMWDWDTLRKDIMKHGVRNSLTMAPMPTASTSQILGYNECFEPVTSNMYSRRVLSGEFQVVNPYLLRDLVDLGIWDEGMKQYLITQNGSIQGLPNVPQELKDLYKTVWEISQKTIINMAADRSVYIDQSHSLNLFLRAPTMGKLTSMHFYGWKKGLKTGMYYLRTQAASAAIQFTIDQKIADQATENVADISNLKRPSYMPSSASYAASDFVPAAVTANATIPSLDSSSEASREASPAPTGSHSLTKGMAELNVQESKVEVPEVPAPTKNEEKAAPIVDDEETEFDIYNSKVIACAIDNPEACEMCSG
Kind of test: cell-based or functional assay.

Ends that are not written are not given here.

Regarding “GBD vector (Gal4 DNA binding domain alone, empty vector control) (from UniProt P04386 1-147)”, the two-hybrid LacZ activity in test [1] turned out to be 0.4 Miller Units.
For the molecule “RNR2: GBD (Gal4 DNA binding domain) fusion of the RNR2 ORF in pGBD-C2, two-hybrid construct (GAFTFNEDF)”, the LacZ activity was 0.9 ± 0.4 Miller Units in test [2], 2.3 ± 0.4 Miller Units in test [3] and 1.4 ± 0.1 Miller Units in test [4]. For the same molecule, the ADE2 reporter result in test [3] (SC-ADE-LEU-TRP) is given as “+/−”. In addition, in test [3] (SC-HIS-LEU-TRP plus 3-aminotriazole), the HIS3 reporter entry was “+”.
For the molecule Ac-GAFTFNEDF [N-acetylated nonapeptide corresponding to the last 9 amino acids of Rnr2p], the “IC50, in vitro yeast RNR assay” value in test [5] came to 44 µM.
